Numbering of substitutions follows the chain as printed. Names and notes keep the numbering of the source. Values joined by “and” are separate entries in the source; they are usually repeats but may differ in a detail not shown here. Identical values can stand only once. Like-named read-outs stand apart in the source and are kept apart here. Primed or numbered codes have the meaning given here. Where no end group is shown, it is not given here. The star is where a group is joined. Myristoyl = CCCCCCCCCCCCCC(=O)*; PEG4′ = PEG4 linker

The labels stand for the following.
T1: full-length SIRT2 (amino acids 1–389) (human), Q8IXJ6
T1 chain: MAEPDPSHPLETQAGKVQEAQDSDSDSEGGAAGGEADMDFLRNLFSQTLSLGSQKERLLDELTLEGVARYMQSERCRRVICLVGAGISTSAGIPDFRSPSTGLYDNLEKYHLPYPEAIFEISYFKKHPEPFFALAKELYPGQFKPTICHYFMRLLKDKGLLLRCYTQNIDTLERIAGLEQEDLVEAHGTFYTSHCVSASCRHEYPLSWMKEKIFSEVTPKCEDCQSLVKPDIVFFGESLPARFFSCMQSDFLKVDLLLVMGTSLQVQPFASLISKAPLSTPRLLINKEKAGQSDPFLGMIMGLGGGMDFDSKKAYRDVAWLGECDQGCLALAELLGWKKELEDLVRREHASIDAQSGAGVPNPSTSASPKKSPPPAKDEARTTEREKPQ

T2: SIRT2 catalytic domain (SIRT2^cat), amino acids 34–356 (human, UniProt Q8IXJ6-1 34-356)
T2 chain: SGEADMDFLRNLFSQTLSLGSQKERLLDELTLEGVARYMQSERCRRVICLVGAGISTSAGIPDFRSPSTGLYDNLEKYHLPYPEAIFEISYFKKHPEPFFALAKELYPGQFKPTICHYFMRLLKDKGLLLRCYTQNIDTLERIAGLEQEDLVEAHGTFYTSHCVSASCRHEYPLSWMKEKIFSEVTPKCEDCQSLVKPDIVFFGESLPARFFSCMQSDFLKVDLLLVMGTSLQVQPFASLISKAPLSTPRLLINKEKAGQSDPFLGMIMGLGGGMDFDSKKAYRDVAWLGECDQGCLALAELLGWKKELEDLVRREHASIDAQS

B1: full-length SIRT2 (amino acids 1–389), Q8IXJ6-1 1-389 (enzyme)
chain: T1 chain
B2: SIRT2cat catalytic domain (protein)
chain: ERLLDELTLEGVARYMQSERCRRVICLVGAGISTSAGIPDFRSPSTGLYDNLEKYHLPYPEAIFEISYFKKHPEPFFALAKELYPGQFKPTICHYFMRLLKDKGLLLRCYTQNIDTLERIAGLEQEDLVEAHGTFYTSHCVSASCRHEYPLSWMKEKIFSEVTPKCEDCQSLVKPDIVFFGESLPARFFSCMQSDFLKVDLLLVMGTSLQVQPFASLISKAPLSTPRLLINKEKAGQSDPFLGMIMGLGGGMDFDSKKAYRDVAWLGECDQGCLALAELLGWKKELEDLVRREHASIDAQS
B3: myristoyl-H4K16 peptide (13mer) (peptide)
peptide: KGLGKGGAK(Myristoyl)RHRK
notes: also called myristoyl peptide; myristoylated peptide; source: synthetic peptide (New England Peptide)
B4: SIRT2^cat(Q142A/E340A) (domain or fragment, human)
chain: T2 chain with Q110A, E308A

Data set [1] deals with SIRT2 catalytic domain (SIRT2^cat), amino acids 34–356 (human) (UniProt Q8IXJ6). The data set is described as follows: cross-linking; 1 mM Bis(NHS)-PEG5, 10 μM SIRT2 protein, room temperature 1 h, PBS with 1 mM DTT, with or without 12 μM acylated H4K16 peptide, ADP-ribose or the 286-313 peptide; SDS-PAGE, Coomassie bands quantified.
The target is the same in data set [2]. Described as above. The source holds these as a separate data set.
Data set [3] shares this target. Description: SEC; analytical SEC, Bio-Rad Enrich SEC 650 column, PBS with 1 mM DTT, 100 μL injected (SIRT2^cat 2-80 μM; full-length SIRT2 56 μM); Kd of dimer to monomers estimated from the peak concentrations at elution, averaged over all runs with two peaks.
For data set [4] the target is unchanged. The data set is described as follows: cross-linking; Bis(NHS)-PEG5, 10 μM SIRT2^cat pre-equilibrated with SIRT2 inhibitors, 50 μL, 2% DMSO; SDS-PAGE, Coomassie bands quantified.
The target in data set [5] is T1, full-length SIRT2 (amino acids 1–389) …. The data set is described as follows: SEC; analytical SEC, Bio-Rad Enrich SEC 650 column, PBS with 1 mM DTT, 100 μL injected (SIRT2^cat 2-80 μM; full-length SIRT2 56 μM); Kd of dimer to monomers estimated from the peak concentrations at elution, averaged over all runs with two peaks. To be noted: remark: other sources report otherwise.

For data set [6] the target is unchanged. Description: cross-linking; 1 mM Bis(NHS)-PEG5, 10 μM SIRT2 protein, room temperature 1 h, PBS with 1 mM DTT, with or without 12 μM acylated H4K16 peptide, ADP-ribose or the 286-313 peptide; SDS-PAGE, Coomassie bands quantified. To be noted: remark: other sources report otherwise.
Data set [7] has as its target T2, SIRT2 catalytic domain (SIRT2^cat), ….
Data set [8] deals with myristoyl-H4K16 peptide H4K16 peptide (Homo sapiens, UniProt P62805, myristoylated K16). The data set is described as follows: gel shift assay.
The data set “SIRT2^cat(Q142A/E340A)” deals with B4. The data set is described as follows: cross-linking; 1 mM Bis(NHS)-PEG5, 10 μM SIRT2 protein, room temperature 1 h, PBS with 1 mM DTT, with or without 12 μM acylated H4K16 peptide, ADP-ribose or the 286-313 peptide; SDS-PAGE, Coomassie bands quantified. To be noted: both partners purified.
Data set [9] deals with the molecule itself. Description: cell-based or functional assay.

In data set [1], “SIRT2 catalytic domain (SIRT2^cat), amino acids 34–356 (from UniProt Q8IXJ6-1 34-356) (domain or fragment)” yielded a percent of the protein cross-linked as dimer of 47.4%. In data set [2], this molecule showed a percent of the protein cross-linked as dimer of 50.8%, a percent of the protein cross-linked as trimer of 6% and a percent of the protein migrating as monomer after cross-linking of 43.2%. Besides, in [3], the Kd was 121 nM and the stoichiometry N was 2. Further, in [4], the percent of the protein cross-linked as dimer, no inhibitor is 49.9% and 50.6%; the percent of the protein cross-linked as dimer, with 20 μM ascorbyl palmitate worked out at 32.1%; the percent of the protein cross-linked as dimer, with 200 μM ascorbyl palmitate worked out at 31.8%.
For B1, the stoichiometry N in [5] is 2. The percent of the protein oligomeric after cross-linking in data set [6] is 50%.
Turning to {FAM-PEG4′}-KGLGKGGAK(Myristoyl)RHRK-OH [FAM-myristoyl-H4K16 peptide], the Kd in data set [7] stood at 2000 nM.
Turning to B2, in data set [8], the Kd is roughly 1500 nM.
For the molecule B3, the binding result with SIRT2^cat(Q142A/E340A) is recorded as “binds”. In data set [7], the Kd came out at 1000 nM.
Regarding B4, in data set [9], the “fold decrease in de-4-oxononanoylase catalytic efficiency (kcat/Km) of the mutant against wild-type SIRT2^cat” value turned out to be 4 fold and the “fold decrease in deacetylase catalytic efficiency (kcat/Km, acetyl-H4K16 peptide, 1 mM NAD+) of the mutant against wild-type SIRT2^cat” value was 6 fold.

Source of the values: publication PMC10702427, “Effects of Dimerization on the Deacylase Activities of Human SIRT2” (Biochemistry, 2023).
